The text below walks through data of paper PMC12564524, “AlphaFold-Guided Semi-Rational Engineering of an (R)-Amine Transaminase for Green Synthesis of Chiral Amines” (Biomolecules, 2025).

The test system of one data set is T1, CC(=O)CCc1ccccc1.
T1 construct: N-terminal 6xHis tag, pET-15b, codon-optimised synthetic gene, E. coli BL21(DE3), Ni-NTA purified; about 48 kDa; PLP-dependent fold type IV
As to the kind of experiment: HPLC quantification of (R)-1-methyl-3-phenylpropylamine, Michaelis-Menten fit. Type of data set: biochemical, Mycolicibacterium wolinskyi. The conditions noted are these: pH 7.0, 40 °C, 30 min, 10 μg/mL enzyme, ketone 0-200 mM, standard assay has 20 mM (R)-2-aminoheptane, 2 mM PLP, 100 mM triethanolamine. From the text: (§1) HPLC quantification of (R)-1-methyl-3-phenylpropylamine, Michaelis-Menten fit on MwoAT

Substrate in data set [1]: CC(=O)CCc1ccccc1
The description is as above. Type of data set: biochemical, Mycolicibacterium wolinskyi. The conditions noted are these: pH 7.0, 40 °C, 30 min, 10 μg/mL enzyme, ketone 0-200 mM, standard assay has 20 mM (R)-2-aminoheptane, 2 mM PLP, 100 mM triethanolamine.
Text: as §1

In general, Km refers to the substrate concentration at which the rate is half of its maximum. As a reminder, the kcat is the maximal rate divided by the concentration of active sites. One may read the kcat/Km as the turnover number divided by the Michaelis constant.

For “MwoAT (Mycolicibacterium wolinskyi; L175A)”, in the data set on CC(=O)CCc1ccccc1, the Km amounted to 54.25 ± 2.42 mM, the kcat was found to be 5.677 ± 0.0542 s⁻¹ and the kcat/Km is 105 ± 5.67 M⁻¹ s⁻¹.
As to “MwoAT (Mycolicibacterium wolinskyi; L175G)”, in the data set with CC(=O)CCc1ccccc1, the Km is given as 42.87 ± 0.43 mM, the kcat is 5.32 ± 0.026 s⁻¹ and the kcat/Km turned out to be 124 ± 2.5 M⁻¹ s⁻¹.

B1: MwoAT (Mycolicibacterium wolinskyi) (protein)
chain: MQYSDYELDTTSPFAGGVAWIEGEYLPASEAKISIFDTGFGHSDLTYTVAHVWHGNIFRLGDHLDRLLDGARKLRLDPGMSKDELAEITKKCVSLSQLRESFVNLTVTRGYGKRKGEKDLSKLTHQVYIYAIPYLWAFPPSEQIFGTTAIVPRHVRRAGRNTVDPTIKNYQWGDLTAASFEAKDRGARTAILMDADNCVAEGPGFNVVIVKDGKLASPSRNALPGITRKTVFEIADAMGIEAELRDVTSHELYDADELMAVTTAGGVTPINSLDGEPIGDGAPGPLTVAIRDRFWALMDEPSALIEAIQY
notes: N-terminal 6xHis tag, pET-15b, codon-optimised synthetic gene, E. coli BL21(DE3), Ni-NTA purified; about 48 kDa; PLP-dependent fold type IV
B1: in data set [1], the Km is reported as 68.03 ± 1.68 mM, the kcat is 3.9358 ± 0.0035 s⁻¹ and the kcat/Km turned out to be 57.8 ± 1.5 M⁻¹ s⁻¹.
